The supplement of paper PMC10598134
± gives the standard deviation.

Experiment: collision cross section of modified peptide (TIMS, N2, iRT-aligned); higher = larger / more extended gas-phase ion
Outline: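 Synthetic peptide pools (~100 fmol/µL in 2% acetonitrile/0.1% formic acid, iRT standard spiked 1:40) were separated on a 120-min nanoflow C18 gradient at 60 °C. They were analysed on a timsTOF Pro/HT (dda-PASEF, nitrogen, ~2.4 mbar) and identified with MaxQuant. 1/K0 was calibrated with three reference ions and aligned run-wise to the median iRT peptide deviation. Collision cross section came from the Mason-Schamp equation, averaging 1–3 technical replicates of the most abundant feature per charge state.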

[1] = charge state: 2, modification: Phospho (Y)
[2] = charge state: 2, modification: Acetyl (K)
[3] = charge state: 2, modification: hydroxyisobutyryl
[4] = charge state: 3, modification: hydroxyisobutyryl
[5] = charge state: 2, modification: Formyl
[6] = charge state: 3, modification: Formyl
[7] = charge state: 3, modification: Biotin
[8] = charge state: 2, modification: Succinyl
[9] = charge state: 2, modification: Crotonyl
[10] = charge state: 2, modification: Biotin
[11] = charge state: 2, modification: Nitro (Y)
[12] = charge state: 2, modification: HexNAc (ST)
[13] = charge state: 2, modification: GlyGly (K)
[14] = charge state: 3, modification: GlyGly (K)

YTQVGPDHNR [_Y(Phospho (Y))TQVGPDHNR_]
collision cross section [1]: 363.13 ± 0.064 Å²
collision cross section (charge state: 3, modification: Phospho (Y)): 430.78 Å²

AAINQKLIETGER [_AAINQK(Acetyl (K))LIETGER_]
collision cross section [2]: 403.07 ± 1 Å²

DAEAAEATAEGALKAEK [_DAEAAEATAEGALK(Trimethyl (K))AEK_]
collision cross section (charge state: 2, modification: Trimethyl (K)): 469.97 ± 1 Å²
collision cross section (charge state: 3, modification: Trimethyl (K)): 535.87 ± 1.1 Å²

FVDSKVGEFSGANK [_FVDSK(Gluratylation)VGEFSGANK_]
collision cross section (charge state: 2, modification: Glutarylation): 419.09 Å²

PGGEGPQCEKTTDVK [_PGGEGPQCEK(Malonyl)TTDVK_]
collision cross section (charge state: 2, modification: Malonyl): 427.2 Å²

GTVPDDAVEALADSLGKK [_GTVPDDAVEALADSLGK(hydroxyisobutyryl)K_]
collision cross section [3]: 460.24 ± 0.81 Å²
collision cross section [4]: 537.74 ± 2.1 Å²

LDHLAEKFR [_LDHLAEK(Formyl)FR_]
collision cross section [5]: 364.92 ± 0.89 Å²
collision cross section [6]: 435.6 ± 2.1 Å²

ITLSKHQNVQLPR [_ITLSK(Formyl)HQNVQLPR_]
collision cross section [5]: 435.58 ± 0.72 Å²
collision cross section [6]: 504.15 ± 24 Å²

ITLSKHQNVQLPR [_ITLSK(Malonyl)HQNVQLPR_]
collision cross section (charge state: 3, modification: Malonyl): 478.94 ± 1.8 Å²

LDLSSLAYSGK [_LDLSSLAY(Phospho (Y))SGK_]
collision cross section [1]: 374.73 ± 0.68 Å²

YEQEHAAIQDKLFQVAK [_YEQEHAAIQDK(Biotin)LFQVAK_]
collision cross section [7]: 538 ± 1.6 Å²

VNIGQGSHPQKVK [_VNIGQGSHPQK(Succinyl)VK_]
collision cross section [8]: 423.92 ± 1.1 Å²
collision cross section (charge state: 3, modification: Succinyl): 481.33 ± 2 Å²

FGDSRGGGGNFGPGPGSNFR [_FGDSR(Citrullination (R))GGGGNFGPGPGSNFR_]
collision cross section (charge state: 3, modification: Citrullination (R)): 490.23 ± 0.77 Å²

SKHLQEQLNELK [_SK(Formyl)HLQEQLNELK_]
collision cross section [5]: 412.77 ± 0.19 Å²
collision cross section [6]: 477.47 ± 2.1 Å²

IQTKAGEATVK [_IQTK(Crotonyl)AGEATVK_]
collision cross section [9]: 371.41 ± 0.56 Å²

LQLEIDQKK [_LQLEIDQK(Biotin)K_]
collision cross section [10]: 382.89 ± 0.23 Å²

ALLQAKASGK [_ALLQAK(Crotonyl)ASGK_]
collision cross section [9]: 351.6 ± 1.3 Å²

SDDESSQKDIK [_SDDESSQK(Acetyl (K))DIK_]
collision cross section [2]: 374.03 ± 0.38 Å²

LQAAYAGDKADDIQK [_LQAAYAGDK(hydroxyisobutyryl)ADDIQK_]
collision cross section [3]: 440.97 ± 0.91 Å²

VETTVTSLKTK [_VETTVTSLK(Dimethyl (K))TK_]
collision cross section (charge state: 2, modification: Dimethyl (K)): 385.99 ± 0.37 Å²
collision cross section (charge state: 3, modification: Dimethyl (K)): 450.04 ± 3.7 Å²

GSLEKGSPEDK [_GSLEK(Biotin)GSPEDK_]
collision cross section [10]: 382.87 Å²

ASNAAVKLAESK [_ASNAAVK(Acetyl (K))LAESK_]
collision cross section [2]: 371.36 ± 0.81 Å²

AAGQPYEQHAK [_AAGQPY(Nitro (Y))EQHAK_]
collision cross section [11]: 375.04 ± 1.1 Å²
collision cross section (charge state: 3, modification: Nitro (Y)): 431.09 ± 1.1 Å²

LQEKVESAQSEQK [_LQEK(Biotin)VESAQSEQK_]
collision cross section [10]: 433.03 ± 0.23 Å²
collision cross section [7]: 526.98 ± 0.34 Å²

SGNLTEDDKHNNAK [_SGNLTEDDK(Crotonyl)HNNAK_]
collision cross section [9]: 426.1 Å²
collision cross section (charge state: 3, modification: Crotonyl): 469.87 ± 1.6 Å²

VPTTEKPTVTVNFR [_VPTTEK(hydroxyisobutyryl)PTVTVNFR_]
collision cross section [3]: 429.55 ± 0.83 Å²
collision cross section [4]: 512.54 ± 2 Å²

VFLDCCNYITELR [_VFLDCCNY(Nitro (Y))ITELR_]
collision cross section [11]: 448.56 ± 0.53 Å²

SPSDSGYSYETIGKTTK [_SPSDSGYSYETIGK(Propionyl)TTK_]
collision cross section (charge state: 3, modification: Propionyl): 528.1 Å²

EEKPAVTAAPK [_EEKPAVT(HexNAc (ST))AAPK_]
collision cross section [12]: 383.27 ± 0.13 Å²
collision cross section (charge state: 3, modification: HexNAc (ST)): 484.12 ± 0.17 Å²

DYSSGFGGKYGVQADR [_DYSSGFGGK(GlyGly (K))YGVQADR_]
collision cross section [13]: 440.03 ± 1.4 Å²
collision cross section [14]: 489.79 ± 1.3 Å²

TEVLSPNSKVESK [_TEVLSPNSK(Acetyl (K))VESK_]
collision cross section [2]: 411.3 ± 1.6 Å²
collision cross section (charge state: 3, modification: Acetyl (K)): 448.45 ± 2.4 Å²

LGSPSGKTGTCR [_LGSPSGK(Succinyl)TGTCR_]
collision cross section [8]: 368.12 ± 0.52 Å²

APVGSVVSVPSQSSASSDK [_APVGSVVSVPSQS(HexNAc (ST))SASSDK_]
collision cross section [12]: 464.2 ± 0.14 Å²

YIEIYVQKVNPSR [_YIEIYVQK(GlyGly (K))VNPSR_]
collision cross section [13]: 453.07 ± 1.4 Å²
collision cross section [14]: 515.19 ± 0.35 Å²
